The data set is described as follows: soluble fraction after stress (log2 fold change); higher = more stays soluble; pooled small domains, quantitative proteomics. Conditions: stress: 75 degC.
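Further: 20 min heating vs room temperature control held 20 min.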

With “HMTARPTLEKLKYMIHEAGITENSLKVIVATKGHYGLDADISTYSDDFITRWIIPNWTKIVQTISNNK”, the “soluble fraction (log2)” value is -1.81. As for “HMTASSYMGMQLGRLEELLKKEVLSLSEKTELKDLISDFDKIPEVVSPKIIGRYLQLKNQHFAKINA”, the figure is -0.437; as for “HMTAVVPNFKGKLISELSNFVADKNVRYTIIDSIYDPEEKSGIVIKQDPEEKTQVKHNRIIYLYVTST”, -1.51.

As for “HMTDDFAGRFNELLIHNQETAVTAATRLEVSPAVITKWRQGKSIPSGEYIKRIVETYHVSADYLLGVIDTP”, the “soluble fraction (log2)” value was -0.838. As for “HMTDEEFSRIVKYTAVRYGINLYHKKVMVEGRLSNYLAANGFKSYTEYMDRVEADYTGQEAQNLINILTT”, the figure is -2.53; as for “HMTDFDPDGREKLIKVQKALHFNNHQLADALRVGQATFSSYIYGRVAAGVPVRVVKAAEDLLKNSKATV”, -0.531. As to “HMTDFDWSLFTQQLKRFNLFLSYDDREKLQTFQTLYGLNELDLAEYVAKASAGEKNGLNFNYLRQLINKEK”, the “soluble fraction (log2)” value was -1.46. With “HMTDFNTFSDAIIAAVGSRASGLKVVDNAVSVMVDVSGLNEDQRVEIEADVRAAAEHAGAQSVRIMLT”, the “soluble fraction (log2)” value was -0.58.

For the sequence “HMTDLALHIGKTLRELRQRRGWSLDKTAQATGVSKAMLGQIERGESSPTVVTLWRISSGLQASFSEFLPP”, the “soluble fraction (log2)” value was -3.69. “HMTDLDVAVTMTVALEEAVNGATRRVRLPNGKELNVKIPAGVAAGQQIRLKGQGETAPGHRPGDVLITVNI”: the “soluble fraction (log2)” value was -0.712.

As for “HMTDLQNDIQAFNLKKMSYQHETKKLEEKRNPEKLEKLEQDIQALYLRIMENPNMRAFDSAKQALYLQIM”, the “soluble fraction (log2)” value was -0.948. As for “HMTDLVVGLAGITLEPLRPAGKAEFNGSVVDVVSLGDYIEKSTAIQIVEIEGNRIVVHHGED”, the figure is -0.865. As for “HMTDQYEVQNLVGLTVREAQEKEGVKDIFEVREVGSEFSAEYDAGLIVRQSPDAGEQRKGEGLVIEVWVSA”, the figure is 0.106; as for “HMTDSLELADLLRRAIITGEYKPRERLVEMELAQKYSVSRTPVREALKHLEALGLVKMERYKGAMVAD”, -0.911. Turning to “HMTDSQLVEAENHVALRQAMAHLGPRERELIGLYYFEEQSQTQIAARFGVSQMQVSRWLTSAVGRIRGQMA”, the “soluble fraction (log2)” value is 0.209. As for “HMTDWNTVEKETLSAIQKVLSGQASWIDLSPADHSIRHMQHEMVQQAGLISQSYGKEPMRRIRIYQNP”, the figure is -0.039; as for “HMTEDADIERRLTGILASAGWYRSLAVEVKEGIVYLDGATASGNHRDWAGSLAAKTEGVVAVVNRIEVQP”, -1.86; as for “HMTEDIAVRILEFLEDNNGFYALNDKTPSEKIHDLFGVSKKKFKIALGGLYKQRLITVSDAGVTLVK”, -1.67. For “HMTEDTPIIVERVVADIDENVVAIVRKFKDAFKSITAQREIKKKLRSILWVNYQIKDQEVFDKAYQYIEMY”, the “soluble fraction (log2)” value came out at 0.241. As for “HMTEEDVVIFSGLSDRDLKMVQTELANSGIKYTLPTSGTVSVPNSEIARAQMVLAMAGIPRS”, the figure is 0.246; as for “HMTEEVIIQNYIGKNFNDVRDELEAKGITVDEPNMKYSDEFKENTIMAQSIKPGQPLKPGGFNSIKFDVS”, -0.0167.

Take “HMTEFFNMQDMFYFKLTGDVTSKERRQSLGKILGIGYGNAAQMVSRLNNYGITKEEFTNAINEIEKQMEAG”: the “soluble fraction (log2)” value is -0.715. As for “HMTEISGIEKFLASGAINGIGPAMAKKIVAEFGEKTLEIIAKSPNELLKVPGIGKKTAEKISTSYLEQ”, the figure is -0.04; as for “HMTEKEEERTEDLNYYRLNLISMLKSSYPEYLDDEEFISNRSQEAAEAFEDAVRSGSNYLDASAESNRTLY”, -0.229; as for “HMTEKIRLTVDEAGKNQRVDKYISTLLTQFSRSSIKTWIETGNILLDNTRTKPRTLLSPGQVIDIQPRFED”, -1.09. On to “HMTEKIVFNIDGQTGRIDKILADFMTGTSRSQIQAWVKDGNLMVNDKAVKSNYKVQDGDLLELTIPEPEQ”, for which the “soluble fraction (log2)” value was -0.284. As for “HMTELIEDYVELIGDLIRHRGEARAADIANRMAVSQATVSKMIRRLNELGLVTSKPYRSLFLTDEGQKMAE”, the figure is -0.363; as for “HMTELLTPKQRQVFELALREGYYDVPRRTSITEMARLLGVAKSTLSAQMHRMEATVMSTFAEEIRKQ”, -2.01; as for “HMTENIPPVKIEEMRQKWQDIVLLHGVTSGRKIKSGQATYIWLYRNDQNWLLTFNSRHLSQPQV”, 0.232. As for “HMTEPKILTAEESQRLDLILVQQWPELGRRALRELVQQGGVRINGELALKAGQYVQAGERVEVAVP”, the figure is 0.232. Then “HMTEQKNNEQQNAVNEKKQALKQLMEKGKEKGSLSYNEVNALLDKLEFTEDQKAIVYDQLHSEDIELQ”, with 0.3; and “HMTEQLTLVGKTGVTTTDLRPSGKVEVDGKRYDAVADNGAFISKGAHIKVVRYVTGQVYVVPTD”, with -0.0624; and “HMTERIRLHDDIGSWVEKHGATRSALIPVLQGIQRSYNEISEYAMQEVADRLDIHPVEVYSVVSFYSF”, with 0.307.

With “HMTESFEFTMNDLVQNNLIMGSGAKERRIAVGEALGIGYTNAKQFLSRLNHYGITRKEFDDEIEKVNQN”, the “soluble fraction (log2)” value was -0.311. With “HMTETEIVIGGKYRHYKGGEYELVSIVKHSETLEELVIYKSLSTGEMWARPKSLFVGLVDGQPRYTL”, the “soluble fraction (log2)” value is -2.22. Take “HMTETIPVSERLFRYLFEEKGKRVQKIQQTSHARVRMERSPYSVVVSGTKDAVEAAMESLKATEKELLEA”: the “soluble fraction (log2)” value was -0.161.

For the sequence “HMTETPDDLLAALKKNKKAQATFDAFSPSNKKEYILWITEAKTEATRTKRLETAIEWMSEGKARNW”, the “soluble fraction (log2)” value is -0.579. Take “HMTETTTVPKLKGLTKDEAEDAAKSSKIKLEFIDEISKTVEAGVIIKQEKDEGETVNAGDTVKVYVSIGT”: the “soluble fraction (log2)” value amounted to 0.472.

For the sequence “HMTEWSIHEVAQRSGVTTRTLRHYDAIGILSPTRTGANGYRYYGPEALVRLQRILLLRDLGLALSDIAE”, the “soluble fraction (log2)” value was -3.82. As for “HMTEYFTIESQEGERIDRYLSEELEDKSRSYIQKLIRDGHVLVDGKTVKAGYRLVAGDNIAITLPEI”, the “soluble fraction (log2)” value was -0.132. Turning to “HMTFAPTAIPSLTRPMEELMSWSFTPNEAFILSRINGLWDVRSIAKISPFPEGEVLRVFEKLHDGGLIRW”, the “soluble fraction (log2)” value was -3.6. With “HMTFNEPSPKEIMDYSLSRGYKVDADAFIDFYRGKAKAYGKEGLWLDGRGRLVKDWRAKLRVVWFKDENKL”, the “soluble fraction (log2)” value was -1.36. Regarding “HMTGDIGAEAAKAAALAHAGVTESQTAKMKVDRDWDDGRLEYDVEFDVGRTEYEYTIDGVTGAVLEYEQDI”, the “soluble fraction (log2)” value is 0.0252. For “HMTGDIIKQERKKKNLTQIELAKKVGISRNALINYEAGTRIPPISVQLKLADVLGIDILDLK”, the “soluble fraction (log2)” value was -1.64. Then “HMTGDISRALDQLPADMRTVLILYALEKQRYEDIAQITGVSVGTVKSRLNRARQKLAAILANQREQNE”, with -1.49. Then “HMTGDNQTIGGGGFHHVAIRAHDFDASVKFYGETLGFREKIAWGEGDKRAIMMDTGDGNYIEIF”, with 0.0318. With “HMTGEDIKKVILREYAREKSLLSIFHELSKVNSNVTLEVIKDIITNIDKLPNDLLQYFKEESSFYQKNKN”, the “soluble fraction (log2)” value was -1.46. Then “HMTGGIWVQIQGAVERPGVYSLPRDSRLKDLLEAAGGFGRDADTEKVNQAARLEDGAMYRVPRQGEG”, with 0.49. Then “HMTGGLLVHVAGAVGAPGVVSLPEGARVVDAIEAAGGAREDADTDQLNLARPVVDGEQVRVPVVGEVLE”, with -0.00946; and “HMTGINMSYEEYKAMADIIVPLIKAGHSPYHIVTNHPELNISEKTLYNYIENGIFREFGLLDINL”, with -1.59.

As for “HMTGIRVYPNPTSSELRFSVATDAALYDATGARLRVVRGSDMMDIRDLASGTYYVRFADGSTQSVVVT”, the “soluble fraction (log2)” value is -0.755. As for “HMTGKLGKIILQPKQTVYGITKKYQISESELRRLNPQLDSHLKIGDEVILPAENIKKFGGNQPVAVS”, the figure is 0.268; as for “HMTGKTTLEYLNPLLERGIPVWDYLAKASGKAKEEVQEMVSKGLVPGAEAAKAIADYMGAEFAGSMA”, -0.0343; as for “HMTGKVKWYDADKGFGFVTEDGGRDVYVRKSALPQGVETLKAGQRLEFGIAEGRRGPQALSVR”, -0.0771. Consider “HMTGLFSPTEQTRHSKTGATLYSVKLAERIERNAFQSLKKRAKEHDGYYSSFTRSFLFDTPEDAEAFRGT”, for which the “soluble fraction (log2)” value was -0.371. “HMTGMEASLSKLLQGEQFADLRKALIDKGIRKLEAFKRLNLWVFMNRNRLYSIGQRQTVYSTLQRALASE”: the “soluble fraction (log2)” value is -0.0934. With “HMTGREIDQLFSVVNDLKAKGVGMVFISHHLDEIARIADSVSVLRDGGFVAEVPASTPEKKLVTLMVGRDI”, the “soluble fraction (log2)” value is -0.228. Take “HMTGWINVDKNWYYMNNSGSMARGMINVNNVSYYLDENGKMLSNTTVNVNGTDYRIDASGAMSQI”: the “soluble fraction (log2)” value is -0.182. As for “HMTHEIKIKSHSLFASEGTKYQWYLNNIKINDATSQELEITSPGIYKLEMTNFDGDVIEKQIIVGLTNS”, the “soluble fraction (log2)” value was -1.91. Then “HMTHHGHSIKRIRDMLGIKQETLAAELNMTQQAFSKLEQKEQIEDEMLDKIAKILHVSTEALKT”, with 0.0102; and “HMTHPAHLARIGALIRSARQHEGLTQAQLAELLGTSQSAIHRIEQGGQNITLDMLTRISAALDSEIVTIG”, with -1.51. Then “HMTHPQVEAYLDDLARMLADIDPGERDDILASVREHLDAEIAAGHGSDAVVNATLLRLGPPEQVAAAARTN”, with -0.0131; and “HMTIAFPSNDVDAVVGYFESRGFDRTASISTATVILQQAKIDGVKVFELIDTLQGMDKVQLSYIVTEILN”, with 0.0608.

With “HMTIATLGERIRKLRKERGLTLAELAGDKLSKGMLSLIENNRAKPSMESLEYIAKRLGVEPAELLE”, the “soluble fraction (log2)” value is 0.0696.

“HMTIENTDTFLETLWEQVQRASVDENGIITSRVLIWDEGTKLDEILSWFDKRHSLGALYLQFG”: the “soluble fraction (log2)” value was -2.66. Turning to “HMTIFGWQTDETGKWYRNADGTFFEAGWKEIDGAKYYFDENGYVKTGWLELDGKDYYFDEEGRYDSSKVR”, the “soluble fraction (log2)” value stood at 0.299. Then “HMTIGLLISKARTNSGLTQAELATRAGTSQAAIARYESDRVSPSVSTLERVLRAAGEELVISSS”, with -0.209. With “HMTINPFSTLAVRELEILHYLLNGHRTKEIATNLGLKMNTVSTIKSNIFEKVKADSFTHLLQLAHVHQIS”, the “soluble fraction (log2)” value was -1.07. As for “HMTIQNSILDEIPNIGASRKRAILEAFGSVHRLRKASPEMISAKVEGIGPEMAQAIHDYLVKHPAT”, the figure is 0.066.

Source of the values: the domain aggregation screens of Martell et al. (2025).
